Tests used:
[1] = target: collagenase-3 receptor and low density lipoprotein receptor-related protein on MEF-1 cells; test: competition with ^125I mouse collagenase-3 on MEF-1 cells; 200-, 400- and 800-fold excess of competitor
[2] = target: collagenase-3 dual receptor system on UMR 106-01 cells (collagenase-3 receptor and low density lipoprotein receptor-related protein); test: competition with ^125I mouse collagenase-3 on UMR-106-01 cells; 200-, 400- and 800-fold excess of competitor
[3] = target: collagenase-3 receptor (170 kDa protein) of mouse embryo fibroblasts MEF-1 and MEF-2 (mouse) (UniProt Q64449); test: competition with ^125I mouse collagenase-3 on MEF-2 (LRP null) cells; 200-, 400- and 800-fold excess of competitor
[4] = target: rat collagenase-3 receptor (170 kDa protein) of UMR 106-01 rat osteosarcoma cells and other rat cells (rat); test: ^125I-labeled ligand at 8 nM on UMR cells, triplicate wells
[5] = target: low density lipoprotein receptor-related protein of human chondrocytes (UniProt Q07954)
[6] = target: low density lipoprotein receptor-related protein of human chondrocytes (UniProt Q07954); test: cell-based or functional assay
[7] = target: collagenase-3 dual receptor system on UMR 106-01 cells (collagenase-3 receptor and low density lipoprotein receptor-related protein); test: competition with ^125I mouse collagenase-3 on UMR cells
[8] = target: rat collagenase-3 receptor (170 kDa protein) of UMR 106-01 rat osteosarcoma cells and other rat cells (rat); test: ^125I-labeled ligand at 10 nM on UMR cells, triplicate wells

rat collagenase-3 receptor (170 kDa protein) of UMR 106-01 rat osteosarcoma cells and other rat cells (rat), sequence (Q4TU93 31-1480): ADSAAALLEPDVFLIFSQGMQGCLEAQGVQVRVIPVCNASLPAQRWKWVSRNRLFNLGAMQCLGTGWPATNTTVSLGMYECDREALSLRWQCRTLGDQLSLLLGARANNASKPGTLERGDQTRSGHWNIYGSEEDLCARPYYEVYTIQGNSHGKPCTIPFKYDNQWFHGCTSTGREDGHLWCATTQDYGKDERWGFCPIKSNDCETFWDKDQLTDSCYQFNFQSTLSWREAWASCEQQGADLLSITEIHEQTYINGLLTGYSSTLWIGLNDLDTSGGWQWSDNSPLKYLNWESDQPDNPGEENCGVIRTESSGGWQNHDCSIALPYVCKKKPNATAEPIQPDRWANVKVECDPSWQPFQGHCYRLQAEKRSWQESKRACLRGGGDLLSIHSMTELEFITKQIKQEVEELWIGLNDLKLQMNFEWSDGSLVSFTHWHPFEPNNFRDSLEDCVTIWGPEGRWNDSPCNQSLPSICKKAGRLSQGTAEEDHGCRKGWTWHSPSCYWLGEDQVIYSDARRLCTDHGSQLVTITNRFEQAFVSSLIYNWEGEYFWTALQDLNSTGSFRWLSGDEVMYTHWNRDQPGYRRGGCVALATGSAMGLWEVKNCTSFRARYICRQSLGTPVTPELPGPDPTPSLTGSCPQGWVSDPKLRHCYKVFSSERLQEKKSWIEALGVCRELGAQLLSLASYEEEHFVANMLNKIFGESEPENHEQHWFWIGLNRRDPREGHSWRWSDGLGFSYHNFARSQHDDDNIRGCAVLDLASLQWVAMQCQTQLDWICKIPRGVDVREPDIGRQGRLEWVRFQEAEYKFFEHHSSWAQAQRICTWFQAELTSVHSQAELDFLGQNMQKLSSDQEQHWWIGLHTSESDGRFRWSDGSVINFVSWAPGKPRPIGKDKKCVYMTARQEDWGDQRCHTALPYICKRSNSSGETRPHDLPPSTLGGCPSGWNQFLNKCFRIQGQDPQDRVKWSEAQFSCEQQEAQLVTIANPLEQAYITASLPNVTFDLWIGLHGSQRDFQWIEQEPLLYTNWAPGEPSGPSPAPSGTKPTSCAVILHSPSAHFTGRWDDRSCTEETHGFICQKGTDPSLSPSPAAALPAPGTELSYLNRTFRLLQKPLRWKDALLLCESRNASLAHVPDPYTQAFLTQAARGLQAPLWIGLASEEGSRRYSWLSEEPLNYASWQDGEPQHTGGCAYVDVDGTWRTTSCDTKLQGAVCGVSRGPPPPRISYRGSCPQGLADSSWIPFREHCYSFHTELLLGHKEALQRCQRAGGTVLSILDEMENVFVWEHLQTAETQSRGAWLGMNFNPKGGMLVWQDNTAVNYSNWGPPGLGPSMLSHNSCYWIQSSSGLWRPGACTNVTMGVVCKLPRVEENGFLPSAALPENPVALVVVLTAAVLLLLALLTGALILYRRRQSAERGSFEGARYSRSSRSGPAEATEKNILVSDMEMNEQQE
collagenase-3 receptor (170 kDa protein) of mouse embryo fibroblasts MEF-1 and MEF-2 (mouse), sequence (Q64449 31-1479): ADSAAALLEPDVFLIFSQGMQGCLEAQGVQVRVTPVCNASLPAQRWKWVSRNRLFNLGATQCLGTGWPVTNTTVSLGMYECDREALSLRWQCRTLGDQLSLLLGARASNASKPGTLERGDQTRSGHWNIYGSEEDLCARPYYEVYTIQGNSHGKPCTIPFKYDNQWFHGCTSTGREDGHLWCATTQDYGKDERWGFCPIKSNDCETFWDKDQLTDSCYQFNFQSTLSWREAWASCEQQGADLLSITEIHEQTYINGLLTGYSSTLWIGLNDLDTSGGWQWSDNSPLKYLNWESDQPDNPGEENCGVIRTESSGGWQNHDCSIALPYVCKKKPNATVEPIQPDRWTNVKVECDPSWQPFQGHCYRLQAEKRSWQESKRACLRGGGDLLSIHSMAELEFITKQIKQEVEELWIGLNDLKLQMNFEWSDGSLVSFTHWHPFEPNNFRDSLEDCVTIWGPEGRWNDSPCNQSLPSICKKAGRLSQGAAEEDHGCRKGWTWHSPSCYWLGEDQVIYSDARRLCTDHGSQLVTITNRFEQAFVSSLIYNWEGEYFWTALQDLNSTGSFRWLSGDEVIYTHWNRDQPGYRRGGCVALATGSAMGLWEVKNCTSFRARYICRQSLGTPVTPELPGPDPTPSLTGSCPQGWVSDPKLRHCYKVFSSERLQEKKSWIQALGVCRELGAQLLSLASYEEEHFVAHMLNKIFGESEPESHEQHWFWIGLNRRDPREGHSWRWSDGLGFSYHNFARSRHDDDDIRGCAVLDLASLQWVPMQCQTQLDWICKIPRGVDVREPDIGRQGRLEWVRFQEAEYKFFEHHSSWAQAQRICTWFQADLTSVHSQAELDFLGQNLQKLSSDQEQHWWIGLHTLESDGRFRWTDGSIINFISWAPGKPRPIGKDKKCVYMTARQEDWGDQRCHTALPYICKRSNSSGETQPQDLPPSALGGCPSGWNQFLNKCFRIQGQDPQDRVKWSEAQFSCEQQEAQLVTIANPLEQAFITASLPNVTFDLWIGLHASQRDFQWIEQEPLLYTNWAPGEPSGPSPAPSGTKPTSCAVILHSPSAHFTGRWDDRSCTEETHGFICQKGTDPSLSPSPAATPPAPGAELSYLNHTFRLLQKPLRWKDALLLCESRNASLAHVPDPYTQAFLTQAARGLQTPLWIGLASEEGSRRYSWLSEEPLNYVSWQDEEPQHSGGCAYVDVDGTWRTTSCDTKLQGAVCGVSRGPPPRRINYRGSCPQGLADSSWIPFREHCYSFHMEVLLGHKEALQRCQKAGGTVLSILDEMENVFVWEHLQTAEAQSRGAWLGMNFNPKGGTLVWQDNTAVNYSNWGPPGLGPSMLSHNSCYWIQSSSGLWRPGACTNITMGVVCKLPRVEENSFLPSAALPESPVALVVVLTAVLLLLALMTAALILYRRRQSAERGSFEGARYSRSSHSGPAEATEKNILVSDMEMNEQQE
human fibroblast collagenase-1 (MMP-1), sequence (P03956 100-469): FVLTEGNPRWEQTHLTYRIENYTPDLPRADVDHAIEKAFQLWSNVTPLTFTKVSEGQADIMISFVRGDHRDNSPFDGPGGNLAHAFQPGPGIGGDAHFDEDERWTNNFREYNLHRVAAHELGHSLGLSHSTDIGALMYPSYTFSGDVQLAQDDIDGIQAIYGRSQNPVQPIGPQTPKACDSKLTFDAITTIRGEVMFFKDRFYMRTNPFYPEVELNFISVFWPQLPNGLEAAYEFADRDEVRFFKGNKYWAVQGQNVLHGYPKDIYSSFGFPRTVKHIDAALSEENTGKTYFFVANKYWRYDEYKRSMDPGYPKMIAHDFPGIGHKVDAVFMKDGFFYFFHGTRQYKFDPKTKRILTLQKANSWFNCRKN
human 72 kDa gelatinase (MMP-2), sequence (P08253 30-660 limits assumed): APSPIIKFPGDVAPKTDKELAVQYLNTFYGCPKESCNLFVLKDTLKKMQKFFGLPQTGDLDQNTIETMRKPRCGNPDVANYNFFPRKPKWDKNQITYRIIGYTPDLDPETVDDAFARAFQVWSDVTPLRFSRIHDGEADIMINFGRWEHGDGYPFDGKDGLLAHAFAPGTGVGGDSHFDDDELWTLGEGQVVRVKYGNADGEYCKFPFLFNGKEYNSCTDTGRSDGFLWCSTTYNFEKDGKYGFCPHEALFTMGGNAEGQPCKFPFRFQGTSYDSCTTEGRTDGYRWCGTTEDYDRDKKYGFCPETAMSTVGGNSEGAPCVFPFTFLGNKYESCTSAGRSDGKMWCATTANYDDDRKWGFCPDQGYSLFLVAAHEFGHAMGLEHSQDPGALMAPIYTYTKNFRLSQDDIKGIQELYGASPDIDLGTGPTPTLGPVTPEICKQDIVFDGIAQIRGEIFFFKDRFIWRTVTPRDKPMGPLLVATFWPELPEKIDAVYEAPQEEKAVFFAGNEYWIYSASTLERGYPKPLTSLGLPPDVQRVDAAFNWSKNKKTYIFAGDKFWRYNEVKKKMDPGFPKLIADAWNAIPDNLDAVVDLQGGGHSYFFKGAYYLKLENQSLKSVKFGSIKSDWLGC
human 92 kDa gelatinase (MMP-9), sequence (P14780 20-707 limits assumed): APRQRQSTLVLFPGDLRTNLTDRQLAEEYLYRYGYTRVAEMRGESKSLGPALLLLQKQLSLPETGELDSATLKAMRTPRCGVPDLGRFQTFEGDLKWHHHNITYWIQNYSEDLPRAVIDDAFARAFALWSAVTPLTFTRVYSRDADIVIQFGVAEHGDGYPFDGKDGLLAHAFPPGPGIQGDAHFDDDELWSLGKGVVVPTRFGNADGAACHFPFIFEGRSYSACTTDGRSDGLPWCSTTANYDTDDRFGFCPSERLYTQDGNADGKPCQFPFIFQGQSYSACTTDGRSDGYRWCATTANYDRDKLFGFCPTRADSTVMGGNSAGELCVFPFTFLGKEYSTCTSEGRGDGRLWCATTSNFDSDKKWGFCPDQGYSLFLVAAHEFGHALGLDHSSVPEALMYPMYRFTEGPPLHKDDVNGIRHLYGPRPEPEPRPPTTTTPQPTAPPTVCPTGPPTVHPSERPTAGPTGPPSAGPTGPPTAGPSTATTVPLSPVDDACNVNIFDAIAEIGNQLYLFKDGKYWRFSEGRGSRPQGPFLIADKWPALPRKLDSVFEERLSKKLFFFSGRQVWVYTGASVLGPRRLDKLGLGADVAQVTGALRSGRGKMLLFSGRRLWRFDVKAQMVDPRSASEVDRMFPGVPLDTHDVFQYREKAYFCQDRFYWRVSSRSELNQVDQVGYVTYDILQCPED

How did the percent of mouse collagenase-3 binding [1] turn out when “HM(166-228)/H chimeric collagenase (from UniProt P03956 20-160; P33435 166-228; P03956 224-408) (enzyme)” was run?
Its percent of mouse collagenase-3 binding is 80.8%.

What about the percent of mouse collagenase-3 binding [2] of the same substance?
Its percent of mouse collagenase-3 binding is 67.8%.

And the percent of mouse collagenase-3 binding [3]?
The percent of mouse collagenase-3 binding was 97.2%.

For “HM/M(141-472) chimeric collagenase (from UniProt P03956 20-135; P33435 141-472) (enzyme)”, which percent of mouse collagenase-3 binding [1] is on record?
The percent of mouse collagenase-3 binding was 84.4%.

What about the percent of mouse collagenase-3 binding [2] of the same substance?
The percent of mouse collagenase-3 binding was 95.7%.

What does the source list for “human fibroblast collagenase-1 (MMP-1) (from UniProt P03956 100-469) (enzyme)”?
Specific binding (fmol/2.6 × 10^5 cells) [4]: 0.1; percent of mouse collagenase-3 binding [2]: 0%

“HM(141-228)/H chimeric collagenase (from UniProt P03956 20-135; P33435 141-228; P03956 224-408) (enzyme)” was tested. Which percent of mouse collagenase-3 binding [1] did it give?
Its percent of mouse collagenase-3 binding is 94.3%.

And the percent of mouse collagenase-3 binding [2]?
The percent of mouse collagenase-3 binding was 89.9%.

What about the percent of mouse collagenase-3 binding [3] of the same substance?
The percent of mouse collagenase-3 binding was 75.1%.

For “MH(213-267)/M chimeric collagenase (exon 5 replacement) (from UniProt P33435 20-212; P03956 213-267; P33435 268-472) (enzyme)”, which percent of mouse collagenase-3 binding [1] is on record?
Its percent of mouse collagenase-3 binding is 99.1%.

And the percent of mouse collagenase-3 binding [2]?
Its percent of mouse collagenase-3 binding is 95.5%.

And the percent of mouse collagenase-3 binding [3]?
The percent of mouse collagenase-3 binding was 98.7%.

For “recombinant mouse collagenase-3 (mMMP-13, residues 1-472) (from UniProt P33435 20-472) (enzyme)”, which percent of mouse collagenase-3 binding [1] is on record?
Its percent of mouse collagenase-3 binding is 100%.

What about the percent of mouse collagenase-3 binding [2] of the same substance?
Its percent of mouse collagenase-3 binding is 100%.

With ^125I collagenase-3 of Example 3 as the substance, how does the “reduction of collagenase-3 internalization by RAP in osteoarthritis chondrocytes” value [5] read?
The value was “by 74.3%”.

For “human 72 kDa gelatinase (MMP-2) (from UniProt P08253 30-660) (enzyme)”, which Specific binding (fmol/2.6 × 10^5 cells) [4] is on record?
Its Specific binding (fmol/2.6 × 10^5 cells) is 0.

Which Specific binding (fmol/2.6 × 10^5 cells) [4] does the source give for “human stromelysin-1 (MMP-3) (from UniProt P08254 18-477) (enzyme)” here?
The Specific binding (fmol/2.6 × 10^5 cells) was 0.

How did the percent of mouse collagenase-3 binding [1] turn out when “C-terminally truncated mouse collagenase-3, M(1-265) (from UniProt P33435 20-265) (enzyme)” was run?
The percent of mouse collagenase-3 binding was 100%.

What about the percent of mouse collagenase-3 binding [2] of the same substance?
Its percent of mouse collagenase-3 binding is 100%.

With “^125I collagenase-3 of Example 3 (enzyme)” as the substance, how does the inhibition of collagenase-3 internalization by receptor-associated protein in control human chondrocytes [6] read?
The inhibition of collagenase-3 internalization by receptor-associated protein in control human chondrocytes was 88.2%.

Which percent of mouse collagenase-3 binding [1] does the source give for “M(1-228)/H chimeric collagenase (from UniProt P33435 20-228; P03956 224-408) (enzyme)” here?
The percent of mouse collagenase-3 binding was 85.9%.

What about the percent of mouse collagenase-3 binding [2] of the same substance?
The percent of mouse collagenase-3 binding was 85.3%.

And the competition efficiency compared to full-length collagenase-3 [7]?
Its competition efficiency compared to full-length collagenase-3 is over 90%.

And the percent of mouse collagenase-3 binding [3]?
Its percent of mouse collagenase-3 binding is 41.9%.

“human 92 kDa gelatinase (MMP-9) (from UniProt P14780 20-707) (enzyme)” was tested. Which Specific binding (fmol/2.6 × 10^5 cells) [8] did it give?
The Specific binding (fmol/2.6 × 10^5 cells) was 3.9.

For “H/M(229-472) chimeric collagenase (from UniProt P03956 20-223; P33435 229-472) (enzyme)”, which percent of mouse collagenase-3 binding [1] is on record?
The percent of mouse collagenase-3 binding was 2.2%.

And the percent of mouse collagenase-3 binding [2]?
The percent of mouse collagenase-3 binding was 16.5%.
